Patent US20260109962

Biological target: T1, 33-mer peptide from alpha-gliadin
T1 chain: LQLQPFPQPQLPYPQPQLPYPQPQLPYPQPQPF

B1: Recombinant E40 (histidine-tagged endopeptidase 40 of Actinoallomurus A8, mature form, produced in S. lividans TK24/pIJ86/e40) (protein)
chain: AAPSGLSPANLQSAYKLPSSTAGSGQTVAIVDAYDAPTAEADLNVYRSQFGLGACTTANGCFKKVDQNGGTSYPRKDGGWAQEISLDLDMVSAVCPNCKIVLVEAKTNSFANLGTAENTAASLANVISNSYGGSDASDASYGSYYNHPGKAITVSSGDAGYGVEYPASSHYVTAVGGTSLRTASTSRGWSETAWSGAGSGCSAYNTALSGQSGLTGCSRRAVADVSAVADPATGVAVYDSTAYQGQSGWMVFGGTSVAAPIIGGVYGLAANAASIDNNYPYAHTSSLFDVTSGSNGTCTTTKWCTAGTGWDGPTGLGTPNGTGAFGHHHHHH
  33-mer gliadin peptide degradation monitored by LC-MS/MS (1:48 enzyme vs substrate molar ratio, pH 5, 37 C): time to complete disappearance of the peptide: the native 33-mer peptide signal completely disappeared after only 15 minutes
  33-mer gliadin peptide degradation monitored by LC-MS/MS (1:96 molar ratio): time to complete degradation: in that case complete 33-mer degradation took 30 minutes (not shown)
  cleavage sites from MS/MS spectra of the digestion products: E40 cleaving site occurs between F-P and Q-L residues of gliadin, leading to short peptides lacking of T-cell stimulatory capacity
